{
  "source": "paper PMC7251214",
  "molecular_target": "MtrD multidrug efflux pump from N. gonorrhoeae strain CR.103 (MtrD_(CR103)) (Neisseria gonorrhoeae) (UniProt Q51073)",
  "assay": "cryo-EM structure; single-particle cryo-EM of purified MtrD_(CR103) in lipid nanodiscs (MSP 1E3D1), 2 uM, 20 mM Tris-HCl pH 7.5, 100 mM NaCl; one structure with fortuitously bound hydrolyzed ampicillin, one after incubation with 10 uM erythromycin for 2 h; C1 symmetry",
  "data": [
    {"substance": "MtrD multidrug efflux pump from N. gonorrhoeae strain CR.103 (MtrD_(CR103)) (from UniProt Q51073 1-1067) (natural protein)", "values": [
      {"measurement": "stoichiometry N", "value": 3}
    ]}
  ]
}
